For the test, the target named is T1, His-PABPC1 (UniProt P11940 1-636).
T1 construct: also called purified His-PABPC1; source: E. coli BL21 (pET28a), purified with nickel-nitrilotriacetic acid beads
Description: pull-down; purified GST-tagged EWS fragment on glutathione magnetic beads; purified His-tagged protein (PABPC1 or ERG) added, no third protein; immunoblot. The settings on record: both partners purified.

T1 sequence (P11940 whole entry): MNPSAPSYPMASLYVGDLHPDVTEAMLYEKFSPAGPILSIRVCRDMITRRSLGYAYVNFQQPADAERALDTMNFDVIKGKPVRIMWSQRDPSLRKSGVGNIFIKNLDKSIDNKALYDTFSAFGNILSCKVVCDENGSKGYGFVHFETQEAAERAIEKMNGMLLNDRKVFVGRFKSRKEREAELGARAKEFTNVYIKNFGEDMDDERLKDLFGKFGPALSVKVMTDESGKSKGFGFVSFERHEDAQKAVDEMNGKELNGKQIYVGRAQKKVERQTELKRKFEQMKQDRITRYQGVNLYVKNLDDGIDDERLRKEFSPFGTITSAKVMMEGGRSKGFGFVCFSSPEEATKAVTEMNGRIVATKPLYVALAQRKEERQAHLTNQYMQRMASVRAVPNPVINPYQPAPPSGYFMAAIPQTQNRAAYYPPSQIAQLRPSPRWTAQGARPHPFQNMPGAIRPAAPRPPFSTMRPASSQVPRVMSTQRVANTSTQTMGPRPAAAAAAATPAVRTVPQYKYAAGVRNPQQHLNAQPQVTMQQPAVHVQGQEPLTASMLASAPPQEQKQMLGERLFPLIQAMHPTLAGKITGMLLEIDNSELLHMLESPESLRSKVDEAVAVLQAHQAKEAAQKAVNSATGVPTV

B1: GST-EWS 356 to 656 (ctEWS) (domain or fragment, UniProt Q01844 356-656, looked up)
chain: EDSDNSAIYVQGLNDSVTLDDLADFFKQCGVVKMNKRTGQPMIHIYLDKETGKPKGDATVSYEDPPTAKAAVEWFDGKDFQGSKLKVSLARKKPPMNSMRGGLPPREGRGMPPPLRGGPGGPGGPGGPMGRMGGRGGDRGGFPPRGPRGSRGNPSGGGNVQHRAGDWQCPNPGCGNQNFAWRTECNQCKAPKPEGFLPPPFPPPGGDRGRGGPGGMRGGRGGLMDRGGPGGMFRGGRGGDRGGFRGGRGMDRGGFGGGRRGGPGGPPGPLMEQMGGRRGGRGGPGKMDKGEHRQERRDRPY
notes: also called GST-ctEWS; C terminus of EWS; source: E. coli BL21 (pGEX-6p-2), purified with magnetic GSH beads
With B1, the binding result is “binds”.

Source of the values: PMC10704431, “A complex with poly(A)-binding protein and EWS facilitates the transcriptional function of oncogenic ETS transcription factors in prostate cells” (The Journal of Biological Chemistry, 2023).
